Assays:
[1] = biological target: BcsD (purified alone via a cleavable N-terminal hexahistidine tag, Bcs^H^isD) (G. hansenii); test: cryo-EM structure
[2] = biological target: N-terminally hexahistidine-tagged full-length BcsH (Bcs^H^isH^FL) (G. hansenii); test: SDS-PAGE and Western blot

Substance	stoichiometry N [1]	stoichiometry N [2]
BcsD (purified alone via a cleavable N-terminal hexahistidine tag, Bcs^H^isD) (natural protein)	8	
N-terminally hexahistidine-tagged full-length BcsH (Bcs^H^isH^FL) (natural protein)		2
